Experiment: yeast display, Sf9 membrane polyspecificity reagent, FACS + sequencing; frameworks hold sequencing errors
Procedure, shortened: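 Genes from sorted yeast were amplified by colony PCR, read by MiSeq 2 × 250 sequencing and filtered on CDR length. These cells carried a synthetic nanobody library in Saccharomyces cerevisiae BJ5465 and were sorted by FACS into low and high (top ~1%) gates on anti-HA and streptavidin fluorescence. Polyreactivity is labelled according to the gate of origin.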

For “QVQLVESGGGLVQAGGSLRLSCAASGSTFSTYVMGWYRQAPGKERELVATISYSSDSTYYADSVKVRFTISRDNAKNTVYLQMNSLKPEDSAVYYCNAARFTRRDYWGQGTQVTVSS”, which “polyreactivity (PSR sort gate)” value is on record?
The value was “high polyreactivity”.

With “QVQLVESGGGLVQAGGSLRLSCAASGSTFSVNAMGWYRQAPGKERELVAAITRSGGSTYYEDSVKGRFTISRENAKNTVYLQMNSLKPEDTAVYYCAAVIFPLGEYWGQGTQVTVSS” as the sequence, how does the “polyreactivity (PSR sort gate)” value read?
Its value is “low polyreactivity”.

For “QVQLVESGGGLVQAGGSLRLSCAASGSTFSVYAMGWYRQAPGKERELVAAITSGGSTNYADSVKGRFTISRDNAKNTVYLQMNSLKPEDTAVYYCAAYLYDTIYTSYREYDYWGQGTQVTVSS”, which “polyreactivity (PSR sort gate)” value is on record?
Its value is “low polyreactivity”.

Which “polyreactivity (PSR sort gate)” value does the source give for “QVQLVESGGGLVQAGGSLRLSCAASGSTFSVYAMGWYRQAPGTERELVAAITWSGGSTYYADSVKGRFTISRDNAKNTDYLQMNSLKPEDTAVYDCNAEGYYVWGITTYWLHQYGYWGQGTQVTVSS” here?
Its value is “low polyreactivity”.

For “QVQLVESGGGLVQAGGSLRLSCAASGSTFSVYGMGWYRQAPGKERELVAAITRGSRTYYADSVKGRFTISRDNAKNTVYLQMNSLKPEDTAVYYSAAKWWWRSYWGQGTQVTVSS”, which “polyreactivity (PSR sort gate)” value is on record?
Its value is “high polyreactivity”.

Which “polyreactivity (PSR sort gate)” value does the source give for “QVQLVESGGGLVQAGGSLRLSCAASGSTFSVYTMGWYRQAPGKERELVAAISRSGGRTYYADSVKGRFTISRDNAKNTVYLQMNSVKPDDTAVYYCATGYYGTYDYWGQGTQVTVSS” here?
Its value is “high polyreactivity”.

Which “polyreactivity (PSR sort gate)” value does the source give for “QVQLVESGGGLVQAGGSLRLSCAASGSTFSWYAMGWYRPAPGKEMELVAAISSGGSTNYADSVKGRFTISRDNAKNTVYLQMNSLKPEDTAVFYCAAVWSRFLISYSTGWWFEYWGQGTQVTVSS” here?
The value was “low polyreactivity”.

With “QVQLVESGGGLVQAGGSLRLSCAASGSTFSWYAMGWYRQAPGKERELVAAITSGGSTQYADSVKGRFTISRDNAKNTVYLQMNSLKPEDTAVYYCATRRYKWGVRYDYWGQGTQVTVSS” as the sequence, how does the “polyreactivity (PSR sort gate)” value read?
Its value is “high polyreactivity”.

Which “polyreactivity (PSR sort gate)” value does the source give for “QVQLVESGGGLVQAGGSLRLSCAASGSTFSYNAKGWYRQAPGKERELANYADSVKGRFTISRDKAKNTVYLQMNSLKPEDTAVYYCAAVGFSYYVIRFDYWGQGTQVTVSS” here?
Its value is “low polyreactivity”.

With “QVQLVESGGGLVQAGGSLRLSCAASGSTFSYNAMGCYRQAPGKESELVAAISRGDVSTYYADSVKGRFTISRDNAKNTVYLQMNSLKPEDTAVYYCAAYWYGSQYKWRYDYWGQGTQVTVSS” as the sequence, how does the “polyreactivity (PSR sort gate)” value read?
The value was “low polyreactivity”.

With “QVQLVESGGGLVQAGGSLRLSCAASGSTFSYNAMGWYRQAPGKEREFVAAITTSGVRTYYADSVKGRFTISRDNAKNTVYLQMNSLKPEDTAVYYCAARANYIFYGMDYWGQGTQVSVSS” as the sequence, how does the “polyreactivity (PSR sort gate)” value read?
The value was “high polyreactivity”.

For “QVQLVESGGGLVQAGGSLRLSCAASGSTFSYNAMGWYRQAPGKERELVAAINLRGGNTYYADSVKGRFTISRDNAKNTVYLQMNSLKPEDTAVYYCARTRRHSQNFDYWGQGTQVIVSS”, which “polyreactivity (PSR sort gate)” value is on record?
Its value is “high polyreactivity”.

With “QVQLVESGGGLVQAGGSLRLSCAASGSTFSYNAMGWYRQAPGKERELVAAISNGGSTNYADSVKGRFTISRDNAKNTVSLQMNSLKPEDTAVYYCAAHTYSELSWLVVYPYDYWGQGTQVTVSS” as the sequence, how does the “polyreactivity (PSR sort gate)” value read?
Its value is “low polyreactivity”.

For “QVQLVESGGGLVQAGGSLRLSCAASGSTFSYNAMGWYRQAPGKERELVAAITSTGRTYYADSVKGRFTISRDNAKNTVYLQMNSLKPEDTAVYYCNKRARSEQYSYKYGYYYWGQGTQVTVSS”, which “polyreactivity (PSR sort gate)” value is on record?
The value was “high polyreactivity”.

Which “polyreactivity (PSR sort gate)” value does the source give for “QVQLVESGGGLVQAGGSLRLSCAASGSTFSYNARGWYRQAPGKERELVAAITSGSSTNYADSVKGRFTISRDNAKNTVYLQMNSLKPEDTAVYYCAADGYQDKYYWLETWVGYWGQGTQVTVSS” here?
The value was “low polyreactivity”.

With “QVQLVESGGGLVQAGGSLRLSCAASGSTFSYNDMGWYRQAPGKESELVADINVSVGRTYYADSVKGRFTISRDNAKNTVYLQMNSLTPEDTAVYYCNATLYTITSYVYAYDYWGQGTQVTVSS” as the sequence, how does the “polyreactivity (PSR sort gate)” value read?
Its value is “low polyreactivity”.

With “QVQLVESGGGLVQAGGSLRLSCAASGSTFSYYAMGWYRQAPGKEREFVAAISRSGGRTYYADSVKGRFKISRDNAKNTVYLQLNSLKPEDTAVYYCATVYYYDFSRTHPWPGDYWGQGTQVTVSS” as the sequence, how does the “polyreactivity (PSR sort gate)” value read?
Its value is “high polyreactivity”.

Which “polyreactivity (PSR sort gate)” value does the source give for “QVQLVESGGGLVQAGGSLRLSCAASGSTFSYYAMGWYRQAPGKERELVAAISRTAVSTYYADSVKGRFTISRDNAKNTVYLQMNSLKPEDTAVYYCAASHFHGYSLGYDYWGQGTQVTVSS” here?
The value was “high polyreactivity”.

For “QVQLVESGGGLVQAGGSLRLSCAASGSTFSYYAMGWYRQAPGKERELVAAISSRGGSTYYADSVKGRFTISRDNAKNTVYLQMNSLKPEDTAVYYCNADHQFRSSVSGDHDYWGQGTQVTVSS”, which “polyreactivity (PSR sort gate)” value is on record?
Its value is “high polyreactivity”.

With “QVQLVESGGGLVQAGGSLRLSCAASGSTFSYYAMGWYRQAPGKERELVAAISSSGGSTYYADSVKGRFTISRDNAKNTVYLQMNSLKPEDTAVYYCNADSWRRRGRSRYDHWGQGTQVTVSS” as the sequence, how does the “polyreactivity (PSR sort gate)” value read?
Its value is “low polyreactivity”.

With “QVQLVESGGGLVQAGGSLRLSCAASGSTFSYYAMGWYRQAPGKERELVAAISWSGGSKYYADSVKGRFTISRDNAKNTVYLQMNSLKPEDTAVYYCAVYYSYWFDYWGQGTQVTVSS” as the sequence, how does the “polyreactivity (PSR sort gate)” value read?
Its value is “high polyreactivity”.

For “QVQLVESGGGLVQAGGSLRLSCAASGSTFSYYAMGWYRQAPGKERELVAAITSGGRTKYADSVKGRFTISRDNAKNTVYLQMNSLKPEDTAVYYCAKRIEKFSGSLAGRWYDYWGQGTQVTVSS”, which “polyreactivity (PSR sort gate)” value is on record?
The value was “high polyreactivity”.

Which “polyreactivity (PSR sort gate)” value does the source give for “QVQLVESGGGLVQAGGSLRLSCAASGSTFSYYGMGSYRTAPGKERELVDAIDYSGDSTYDADSVKGRFTISRDNAKNTVYLQMNSLKPEDTAVYYCAADDYPWNRYAYWGQGTQVPVSS” here?
Its value is “low polyreactivity”.

For “QVQLVESGGGLVQAGGSLRLSCAASGSTFSYYTMGWYRQAPGKERELVAAITRRGDSTYADSVKGRFTISRDNAKTTVYLQMNSLKPEDTAVYYCAADASVGVSGMDYWGQGSQVTVSS”, which “polyreactivity (PSR sort gate)” value is on record?
Its value is “low polyreactivity”.

For “QVQLVESGGGLVQAGGSLRLSCAASGSTFTANAMGWYRQAPGKERELVAAISRSGGSTYYADSVKGRFTISRDNAKNTVYLQMNSLKPEDTAVYYCAADEYYQVSAYDYWGQGTQVTVSS”, which “polyreactivity (PSR sort gate)” value is on record?
The value was “low polyreactivity”.

Which “polyreactivity (PSR sort gate)” value does the source give for “QVQLVESGGGLVQAGGSLRLSCAASGSTFTGNAMGWYRQAPGKERELVAAISRSGGSTFYADSVKGRFTISRDNAKNTVYLQMNSLKPEDTAVYYCATRYVVDMDYWGQGTQVTVSS” here?
The value was “high polyreactivity”.

With “QVQLVESGGGLVQAGGSLRLSCAASGSTFTGNAMGWYRQAPGKERELVAAISRSGGSTFYADSVKGRFTISRDNAKYTVYLQMNSLKAEDTAVYYCATRYVVDMDYWGQGTQVTVSW” as the sequence, how does the “polyreactivity (PSR sort gate)” value read?
Its value is “high polyreactivity”.

With “QVQLVESGGGLVQAGGSLRLSCAASGSTFTGNAMGWYRQAPGKERELVADISSGASTNYADSVKGRFTISRDNAKNTVYLQMNSLKPEDTAVFYCAADSWDYDSRMDYWGQGTQVTVSS” as the sequence, how does the “polyreactivity (PSR sort gate)” value read?
The value was “low polyreactivity”.

Which “polyreactivity (PSR sort gate)” value does the source give for “QVQLVESGGGLVQAGGSLRLSCAASGSTFTGNVMGWYRQAPGKERELVAAIDSGATTNYADSVKGRFTISRDNAKNTVYLQINSLKPEDTAVYYCATDGLDFWFIYDYWGQGTQVTVSS” here?
Its value is “low polyreactivity”.

Which “polyreactivity (PSR sort gate)” value does the source give for “QVQLVESGGGLVQAGGSLRLSCAASGSTFTGYAMGWYRQAPGKEREFVANITKRGGRTYYADSVKGRFTISRDNAKNTVYLQMNSLKPEDTAGYYCARDQGKLVVPYEYWGQATQVTVSS” here?
Its value is “high polyreactivity”.

With “QVQLVESGGGLVQAGGSLRLSCAASGSTFTGYAMGWYRQAPGKERELVAAIDVSGATTYYADSVKGRFTISRDNAKNTVYLQMNSLKPEDTAVYYCATYATNSVAAYDYWGQGTQVTVSS” as the sequence, how does the “polyreactivity (PSR sort gate)” value read?
The value was “low polyreactivity”.

Which “polyreactivity (PSR sort gate)” value does the source give for “QVQLVESGGGLVQAGGSLRLSCAASGSTFTGYAMGWYRQAPGKERELVAAISISGGRTFYADSVKGRFTISRDNAKNTVYLQMNSLKPEDTAVYFCAAYLRGSKYSFDYWVQGTQVTVSS” here?
Its value is “high polyreactivity”.

With “QVQLVESGGGLVQAGGSLRLSCAASGSTFTGYAMGWYRQAPGNEREFVAAISRRGGSTYYADSVKGRFTISRDNAKNTVYLQMNSLKPEDTAVYYCAARGVGGTVPTRYDYWGQGTQVTVSS” as the sequence, how does the “polyreactivity (PSR sort gate)” value read?
The value was “high polyreactivity”.

Which “polyreactivity (PSR sort gate)” value does the source give for “QVQLVESGGGLVQAGGSLRLSCAASGSTFTINVMGWYRQAPGKERELVAAINGGGRTNYADSVKGRFTISRDNAKNTVYLQMNSLKPEDTAVYYCNARYGNESQGWEDYWGQGTKVTVSS” here?
The value was “low polyreactivity”.

With “QVQLVESGGGLVQAGGSLRLSCAASGSTFTIYAIGWSRQAPGKERELVAGITRVGSTNYADSVKGRFTISRDNAKNTVYLQMNSLKPEDTAVYYCARRDLFQAGYEYWGQGTQVTVSS” as the sequence, how does the “polyreactivity (PSR sort gate)” value read?
The value was “low polyreactivity”.

For “QVQLVESGGGLVQAGGSLRLSCAASGSTFTLNAMVWYRQAPGKERELVADISWSSGRTYYADSVKGRFTISRDNAKNTVYLQMNSLKPEVSAVYYCATYDFWKVKFYAYYPEFDYWGQGTQVTVSS”, which “polyreactivity (PSR sort gate)” value is on record?
The value was “low polyreactivity”.

With “QVQLVESGGGLVQAGGSLRLSCAASGSTFTLYALGWYRQAPGKERELVASITWSGSPYADSVKGRFTISRDNAKNTVYLQMNSLIPEDTAVYYCNTDPRSVVGWYDYWGQGTQVTVSS” as the sequence, how does the “polyreactivity (PSR sort gate)” value read?
The value was “low polyreactivity”.

With “QVQLVESGGGLVQAGGSLRLSCAASGSTFTLYAMGWYRQAPGKERELVATITGSGGSTNYADSVKGRFTISRDNAKNTVYLQMNSLKPEDTAVYYCAAYNPFYYKFDYWGQGTQVTVSS” as the sequence, how does the “polyreactivity (PSR sort gate)” value read?
Its value is “high polyreactivity”.

Which “polyreactivity (PSR sort gate)” value does the source give for “QVQLVESGGGLVQAGGSLRLSCAASGSTFTLYVMGWYRQAPGKERELVAAITSSGDSTDYADSVKGRFTISRDNAKNTVYLQMNSLKPEDTAVYYCNVQPVYADHFTEFDYWGQGTQVTVSS” here?
Its value is “low polyreactivity”.

With “QVQLVESGGGLVQAGGSLRLSCAASGSTFTNNGMGWYRQAPGKERELVATISWDGDSTYYADSVKGRFTISRDNAKNSVYLQMNSLKPEDTAVYDCAADYRLHYSYPYEVVQYEYWGQGTQVTVSS” as the sequence, how does the “polyreactivity (PSR sort gate)” value read?
Its value is “low polyreactivity”.

With “QVQLVESGGGLVQAGGSLRLSCAASGSTFTPNAMGSYRQAPGKERELDASISTTGGNTYYADSVKGRFTISRDNAKNTVYLQMNSLKPEDTAVYYCNAVRSVYLYGYIYGVDYWGQGTQVTVSS” as the sequence, how does the “polyreactivity (PSR sort gate)” value read?
The value was “low polyreactivity”.

From the nanobody polyreactivity screen of Harvey et al. (2022)
